Columns and labels:
[1] = system: 4T1 cells; assay: Repeated dosing of Nani-P2 and cyclophosphamide in 4T1 tumor-bearing mice; assay type: in vivo, mouse
Protocol: Four groups of 10 BALB/c mice were implanted with 1×10^4 4 T1 cells SC into the mammary fat pad. Treatment was initiated when tumor diameters reached 4-5 mm, on day 10. Control mice were injected IV with PBS at 3 days intervals, while alternating treatment mice received 3 doses of drug every 3 days in rotating 10 day cycles. Tumor burden (tumor size mm^3) was calculated using a standard formula. CY (cyclophosphamide alone) mice were injected IP weekly with 80 mg/kg per mouse beginning on day 10. Cy/Nani-P2 (cyclophosphamide first followed by Nani-P2) mice were first injected IP with cyclophosphamide (80 mg/kg) at 3 days intervals for three doses starting at day 10 and then injected IV with Nani-P2 (40 ng) at 3 days intervals for three doses in rotation. The cycle of 3 doses of CY followed by 3 doses of Nani-P2 was repeated until day 50. Nani-P2/CY (Nani-P2 first followed by cyclophosphamide) mice were first injected IV with Nani-P2 (40 ng) at 3 day intervals for 3 doses starting on day 10 and then injected i.p. with cyclophosphamide at 3 day intervals in rotation. The cycle of 3 doses of Nani-P2 followed by 3 doses of CY was repeated until day 50.

[2] = system: Human monocytes; assay: CD86 expression of human monocytes cultured with Tat derivative; assay type: cell-based; conditions: cultured 24-48 hours; fluorescent-labeled CD86; compared with ISS (TLR) or LPS
Protocol: Human monocytes were cultured for 24-48 hours with a Tat derivative (Nani-P2), an immunostimulatory sequence (ISS) of a toll-like receptor (TLR) (FIG. 1), or lipopolysaccharide (LPS) (FIG. 2) and the cells were then washed and stained with fluorescent-labeled CD86.

[3] = Toxicity observed in treated mice; assay type: in vivo, mouse; conditions: SC or IV 40 ng, multiple trials, multiple dosing schedules
[4] = system: IFN-γ; assay: ELISA analysis of IFN-γ production by immune spleen cells of 4T1 tumor-bearing mice; assay type: in vivo, mouse
Protocol: Splenocyte secretion of IFN-γ was assessed by an OptEIA™ ELISA kit (BD Biosciences). Briefly, spleen cells (1×10^5/well) from 4T1 tumor-bearing mice were cultured with or without 5×10^3/well mitomycin C (50 μg/ml)-treated 4T1 cells (used to provide tumor antigens) in DMEM at a 20:1 E:T (effector:[…]) in 96-well plates. Supernatants were collected after 72 hr and kept frozen at −80° C. until analysis without loss of activity. IFN-γ was measured in cell-free supernatants of duplicate wells by ELISA according to the manufacturer's instructions. Tumor-specific IFN-γ production was calculated by subtracting the background values measured in supernatants of spleen cells cultured with medium alone and optical density (OD) values were converted to pg/ml amounts of IFN-γ using a recombinant IFN-γ standard curve. Stimulation index (SI) was calculated as the ratio of IFN-γ in stimulated versus control cultures.
To determine whether cytotoxic T-lymphocytes play a role in tumor rejection induced by Nani-P2 therapy, an IFN-γ ELISA assay (FIG. 7) was performed to compare spleen cells of 4T1 tumor-bearing mice treated either without (Control) or with Nani-P2 (FIG. 7). Spleens were removed under sterile conditions and prepared as described elsewhere (duPre'S. et al. Exp. Mol. Path. 85:174-188, 2008). Briefly, spleens were homogenized and splenocytes, as a rich source of systemic cytolytic T cells and APCs, were co-cultured with mitomycin C-treated 4T1 stimulator cells to induce recall immune responses. Control wells were cultured with medium alone.

[5] = Nani-P2 alternating with cyclophosphamide

B1: Nani-P2: Tat derivative polypeptide SEQ ID NO:3; TF SIVagmVer, cysteine-rich HIV-1, C-terminal SIVagmVer (protein)
chain: MDPKGEEDQDVSHQDLIKQYRKPRTACNNCYCKKCCFHCYACFLRKGLGITYHAFRTRRKKIASADRIPVPQQSISIRGRDSQTTQESQKKVEEQAKANLRISRKNLGDETRGPVGAGN
modifications: Tat derivative polypeptide
notes: TF SIVagmVer, cysteine-rich HIV-1, C-terminal SIVagmVer
[1]; [5]
  mice in partial remission at day 50: 9/10
  mice in total remission at day 50: 3/10
[1]; Nani-P2 bolus treatment alternating with cyclophosphamide, p=0.0001
  survival benefit versus weekly cyclophosphamide: highly statistically significant
[2]
  expression of CD86: higher expression of CD86 than either ISS (TLR) or LPS
[3]
  toxicity: no toxicity was observed
[4]; 40 ng SC weekly for 4 weeks, spleens day 33, 72 hr culture, all conditions of assay
  IFN-γ production of spleen cells versus control mice: significantly (p<0.05*) higher
[4]; no in vitro restimulation
  baseline levels of INF-γ secreted by splenocytes versus PBS control mice: 8 -fold
[4]; tumor stimulators + IL4 + GM-CSF, versus control
  stimulation index: 53

— patent US10159707B2, “Treatment of cancers with immunostimulatory HIV Tat derivative polypeptides” (PIN Pharma, Inc., priority 2013, dated 2018)
